According to US20230035659A1, “Compositions and Methods for TTR Gene Editing and Treating ATTR Amyloidosis Comprising a Corticosteroid or Use Thereof” (Intellia Therapeutics, Inc., priority 2019, published 2023):
Strand notation (5' to 3'): a small letter for the sugar, then the base; units joined by * are phosphorothioate-linked, units joined directly phosphodiester-linked; [ ] holds rarer units or linkages, { } end groups; capitals alone tell only the bases. m = 2'-O-methyl; r = 2'-OH (RNA)

Columns and labels:
[1] = system: TTR; experiment: TTR editing in primary human hepatocytes treated with LNP formulated Spy Cas9 mRNA (SEQ ID NO: 2) and sgRNAs, 12.5 ng mRNA; type: cell-based; conditions: LNP formulated Spy Cas9 mRNA (SEQ ID NO: 2) and sgRNA, 12.5 ng mRNA, 3.9 nM sgRNA, 72 hours
Description: (§1) Primary liver hepatocytes. Primary human liver hepatocytes (PHH) and primary cynomolgus liver hepatocytes (PCH) (Gibco) were cultured per the manufacturer's protocol (Invitrogen, protocol 11.28.2012). In brief, the cells were thawed and resuspended in hepatocyte thawing medium with supplements (Gibco, Cat. CM7000) followed by centrifugation at 100 g for 10 minutes for human and 80 g for 4 minutes for cyno. The supernatant was discarded and the pelleted cells resuspended in hepatocyte plating medium plus supplement pack (Invitrogen, Cat. A1217601 and CM3000). Cells were counted and plated on Bio-coat collagen I coated 96-well plates (ThermoFisher, Cat. 877272) at a density of 33,000 cells/well for human or 60,000 cells/well for cyno (or 65,000 cells/well when assaying effects on TTR protein, described further below). Plated cells were allowed to settle and adhere for 6 or 24 hours in a tissue culture incubator at 37° C. and 5% CO2 atmosphere. After incubation cells were checked for monolayer formation and media was replaced with hepatocyte culture medium with serum-free supplement pack (Invitrogen, Cat. A1217601 and CM4000).
In general, the lipid nanoparticle components were dissolved in 100% ethanol with the lipid component of various molar ratios. The RNA cargos were dissolved in 25 mM citrate, 100 mM NaCl, pH 5.0, resulting in a concentration of RNA cargo of approximately 0.45 mg/mL. The LNPs were formulated with a lipid amine to RNA phosphate (N:P) molar ratio of about 4.5 or about 6, with the ratio of mRNA to gRNA at 1:1 by weight.
The LNPs were formed by microfluidic mixing of the lipid and RNA solutions using a Precision Nanosystems NanoAssemblr™ Benchtop Instrument, according to the manufacturer's protocol. A 2:1 ratio of aqueous to organic solvent was maintained during mixing using differential flow rates. After mixing, the LNPs were collected, diluted in water (approximately 1:1 v/v), held for 1 hour at room temperature, and further diluted with water (approximately 1:1 v/v) before final buffer exchange. The final buffer exchange into 50 mM Tris, 45 mM NaCl, 5% (w/v) sucrose, pH 7.5 (TSS) was completed with PD-10 desalting columns (GE). If required, formulations were concentrated by centrifugation with Amicon 100 kDa centrifugal filters (Millipore). The resulting mixture was then filtered using a 0.2 μm sterile filter. The final LNP was stored at −80° C. until further use.
(§2) Additional PCR was performed per the manufacturer's protocols (Illumina) to add chemistry for sequencing. The amplicons were sequenced on an Illumina MiSeq instrument. The reads were aligned to a reference genome (e.g., the human reference genome (hg38), the cynomologus reference genome (mf5), the rat reference genome (rn6), or the mouse reference genome (mm10)) after eliminating those having low quality scores. The resulting files containing the reads were mapped to the reference genome (BAM files), where reads that overlapped the target region of interest were selected and the number of wild type reads versus the number of reads which contain an insertion, substitution, or deletion was calculated.
(§3) The editing percentage (e.g., the “editing efficiency” or “percent editing” or “indel frequency”) is defined as the total number of sequence reads with insertions/deletions (“indels”) or substitutions over the total number of sequence reads, including wild type.
Lipid nanoparticle formulations of modified sgRNAs targeting human TTR and the cyno matched sgRNA sequences were tested on primary human hepatocytes and primary cyno hepatocytes in a dose response curve. Primary human and cyno hepatocytes were plated as described in Example 1. Both cell lines were incubated at 37° C., 5% CO2 for 24 hours prior to treatment with LNPs. The LNPs used in the experiments detailed in Tables 18-21 were prepared using the Nanoassemblr™ procedure, each containing the specified sgRNA and Cas9 mRNA (SEQ ID NO:2), each having Lipid. […]

[2] = system: potential off-target genomic sites; experiment: Off-target analysis by oligo insertion based assay in primary human hepatocytes (sgRNAs); type: cell-based; conditions: 100 ng Cas9 mRNA, 25 nM sgRNA, 12.5 nM donor oligo, 48 h
Description: Off-target analysis of sgRNAs targeting TTR was performed in primary human hepatocytes (PHH) as described in Example 5, with the following modifications. PHH were plated at a density of 33,000 cells per well on collagen-coated 96-well plates as described in Example 1. Twenty-four hours post plating, cells were washed with media and transfected using Lipofectamine RNAiMAX (ThermoFisher, Cat. 13778150) as described in Example 1. Cells were transfected with a lipoplex containing 100 ng Cas9 mRNA, immediately followed by the addition of another lipoplex containing 25 nM of the sgRNA and 12.5 nM of the donor oligo (0.3 μL/well). Cells were lysed 48 hours post-transfection and gDNA was extracted and analyzed as further described in Example 5. The data is graphically represented in FIG. 20.
Fewer sites were detected in PHH for every guide tested as compared to the HekCas9 cell line, with no unique sites detected in PHH alone.

[3] = system: TTR; experiment: TTR editing dose response (EC50, maximum editing) in primary human hepatocytes treated with LNP formulated U-depleted Spy Cas9 mRNA and sgRNAs; type: cell-based; conditions: LNP with U-depleted Spy Cas9 mRNA and cyno specific sgRNA, 8 point 3-fold dose response starting at 300 ng mRNA, 72 hours
Description: as §1
(§4) For LNPs prepared using the cross-flow technique, the LNPs were formed by impinging jet mixing of the lipid in ethanol with two volumes of RNA solutions and one volume of water. The lipid in ethanol is mixed through a mixing cross with the two volumes of RNA solution. A fourth stream of water is mixed with the outlet stream of the cross through an inline tee. (See WO2016010840 FIG. 2.) The LNPs were held for 1 hour at room temperature, and further diluted with water (approximately 1:1 v/v). Diluted LNPs were concentrated using tangential flow filtration on a flat sheet cartridge (Sartorius, 100 kD MWCO) and then buffer exchanged by diafiltration into 50 mM Tris, 45 mM NaCl, 5% (w/v) sucrose, pH 7.5 (TSS). Alternatively, the final buffer exchange into TSS was completed with PD-10 desalting columns (GE). If required, formulations were concentrated by centrifugation with Amicon 100 kDa centrifugal filters (Millipore). The resulting mixture was then filtered using a 0.2 μm sterile filter. The final LNP was stored at 4° C. or −80° C. until further use.
as §2, §3
(§5) Lipid nanoparticle formulations of modified sgRNAs targeting human TTR and the cyno matched sgRNA sequences were tested on primary human hepatocytes and primary cyno hepatocytes in a dose response curve. Primary human and cyno hepatocytes were plated as described in Example 1. Both cell lines were incubated at 37° C., 5% CO2 for 24 hours prior to treatment with LNPs. The LNPs used in the experiments detailed in Tables 20-22 were prepared using the cross-flow procedure described above but purified using PD-10 columns (GE Healthcare Life Sciences) and concentrated using Amicon centrifugal filter units (Millipore Sigma), each containing the specified sgRNA and Cas9 mRNA (SEQ ID NO:1). […] LNPs were incubated in hepatocyte maintenance media containing 6% cyno serum at 37° C., 5% CO2 for 5 minutes. […]

[4] = system: TTR; experiment: TTR editing dose response (EC50, maximum editing) in primary cyno hepatocytes treated with LNP formulated U-depleted Spy Cas9 mRNA and sgRNAs; type: cell-based, cynomolgus monkey
Description: as §1, §4, §2, §3, §5

[5] = LNP formulated U-depleted Spy Cas9 mRNA and cyno specific sgRNAs

Molecule | 12.5 ng mRNA, 3.9 nM sgRNA, Avg % Edit [1] | # Sites in PHH (off-target integration sites detected) [2] | Max Editing [3] | Max Editing [4, 5] | Max Editing ([4]; LNP formulated U-depleted Spy Cas9 mRNA and human specific sgRNAs)
G000485: TTR sgRNA modified sequence, Human, SEQ ID NO: 92; guide sequence of CR003336 (nucleic acid) guide: mC*mC*mU*rCrCrUrCrUrGrCrCrUrUrGrCrUrGrGrArCrGrUrUrUrUrArGrAmGmCmUmAmGmAmAmAmUmAmGmCrArArGrUrUrArArArArUrArArGrGrCrUrArGrUrCrCrGrUrUrArUrCrAmAmCmUmUmGmAmAmAmAmAmGmUmGmGmCmAmCmCmGmAmGmUmCmGmGmUmGmCmU*mU*mU*mU | 14.23% | 3 | – | – | –
G000487: TTR sgRNA modified sequence, Human, SEQ ID NO: 94; guide sequence of CR003357 (nucleic acid) guide: mU*mU*mC*rUrUrUrGrGrCrArArCrUrUrArCrCrCrArGrGrUrUrUrUrArGrAmGmCmUmAmGmAmAmAmUmAmGmCrArArGrUrUrArArArArUrArArGrGrCrUrArGrUrCrCrGrUrUrArUrCrAmAmCmUmUmGmAmAmAmAmAmGmUmGmGmCmAmCmCmGmAmGmUmCmGmGmUmGmCmU*mU*mU*mU | 17.37% | 0 | – | – | –
G000491: TTR sgRNA modified sequence, Human, SEQ ID NO: 98; guide sequence of CR003338 (nucleic acid) guide: mA*mU*mA*rCrCrArGrUrCrCrArGrCrArArGrGrCrArGrGrUrUrUrUrArGrAmGmCmUmAmGmAmAmAmUmAmGmCrArArGrUrUrArArArArUrArArGrGrCrUrArGrUrCrCrGrUrUrArUrCrAmAmCmUmUmGmAmAmAmAmAmGmUmGmGmCmAmCmCmGmAmGmUmCmGmGmUmGmCmU*mU*mU*mU | 31.60% | 7 | – | – | –
G000492: TTR sgRNA modified sequence, Human, SEQ ID NO: 99; guide sequence of CR003342 (nucleic acid) guide: mC*mU*mU*rCrUrCrUrArCrArCrCrCrArGrGrGrCrArCrGrUrUrUrUrArGrAmGmCmUmAmGmAmAmAmUmAmGmCrArArGrUrUrArArArArUrArArGrGrCrUrArGrUrCrCrGrUrUrArUrCrAmAmCmUmUmGmAmAmAmAmAmGmUmGmGmCmAmCmCmGmAmGmUmCmGmGmUmGmCmU*mU*mU*mU | 15.87% | 5 | – | – | –
G000495: TTR sgRNA modified sequence, Human, SEQ ID NO: 102; guide sequence of CR003343 (nucleic acid) guide: mC*mA*mG*rArGrGrArCrArCrUrUrGrGrArUrUrCrArCrGrUrUrUrUrArGrAmGmCmUmAmGmAmAmAmUmAmGmCrArArGrUrUrArArArArUrArArGrGrCrUrArGrUrCrCrGrUrUrArUrCrAmAmCmUmUmGmAmAmAmAmAmGmUmGmGmCmAmCmCmGmAmGmUmCmGmGmUmGmCmU*mU*mU*mU | 23.97% | 1 | – | – | –
G000496: TTR sgRNA modified sequence, Human, SEQ ID NO: 103; guide sequence of CR005304 (nucleic acid) guide: mG*mG*mC*rCrGrUrGrCrArUrGrUrGrUrUrCrArGrArArGrUrUrUrUrArGrAmGmCmUmAmGmAmAmAmUmAmGmCrArArGrUrUrArArArArUrArArGrGrCrUrArGrUrCrCrGrUrUrArUrCrAmAmCmUmUmGmAmAmAmAmAmGmUmGmGmCmAmCmCmGmAmGmUmCmGmGmUmGmCmU*mU*mU*mU | 30.73% | 0 | – | – | –
G000497: TTR sgRNA modified sequence, Human, SEQ ID NO: 104; guide sequence of CR003335 (nucleic acid) guide: mC*mU*mG*rCrUrCrCrUrCrCrUrCrUrGrCrCrUrUrGrCrGrUrUrUrUrArGrAmGmCmUmAmGmAmAmAmUmAmGmCrArArGrUrUrArArArArUrArArGrGrCrUrArGrUrCrCrGrUrUrArUrCrAmAmCmUmUmGmAmAmAmAmAmGmUmGmGmCmAmCmCmGmAmGmUmCmGmGmUmGmCmU*mU*mU*mU | 15.10% | 3 | – | – | –
G000498: TTR sgRNA modified sequence, Human, SEQ ID NO: 105; guide sequence of CR003359 (nucleic acid) guide: mA*mG*mU*rGrArGrUrCrUrGrGrArGrArGrCrUrGrCrArGrUrUrUrUrArGrAmGmCmUmAmGmAmAmAmUmAmGmCrArArGrUrUrArArArArUrArArGrGrCrUrArGrUrCrCrGrUrUrArUrCrAmAmCmUmUmGmAmAmAmAmAmGmUmGmGmCmAmCmCmGmAmGmUmCmGmGmUmGmCmU*mU*mU*mU | 24.43% | 19 | – | – | –
G000501: TTR sgRNA modified sequence, Human, SEQ ID NO: 108; guide sequence of CR005300 (nucleic acid) guide: mU*mC*mA*rCrArGrArArArCrArCrUrCrArCrCrGrUrArGrUrUrUrUrArGrAmGmCmUmAmGmAmAmAmUmAmGmCrArArGrUrUrArArArArUrArArGrGrCrUrArGrUrCrCrGrUrUrArUrCrAmAmCmUmUmGmAmAmAmAmAmGmUmGmGmCmAmCmCmGmAmGmUmCmGmGmUmGmCmU*mU*mU*mU | 32.30% | 0 | – | – | –
G000504: TTR Cyno specific sgRNA modified sequence, SEQ ID NO: 116; guide sequence of CR005364 (nucleic acid) guide: mA*mA*mA*rGrGrCrUrGrCrUrGrArUrGrArGrArCrCrUrGrUrUrUrUrArGrAmGmCmUmAmGmAmAmAmUmAmGmCrArArGrUrUrArArArArUrArArGrGrCrUrArGrUrCrCrGrUrUrArUrCrAmAmCmUmUmGmAmAmAmAmAmGmUmGmGmCmAmCmCmGmAmGmUmCmGmGmUmGmCmU*mU*mU*mU | – | – | 7.16% | 98.04% | 7.16%
G000503: TTR Cyno specific sgRNA modified sequence, SEQ ID NO: 115; guide sequence of CR005372 (nucleic acid) guide: mA*mA*mA*rArGrGrCrUrGrCrUrGrArUrGrArGrArCrCrGrUrUrUrUrArGrAmGmCmUmAmGmAmAmAmUmAmGmCrArArGrUrUrArArArArUrArArGrGrCrUrArGrUrCrCrGrUrUrArUrCrAmAmCmUmUmGmAmAmAmAmAmGmUmGmGmCmAmCmCmGmAmGmUmCmGmGmUmGmCmU*mU*mU*mU | – | – | – | 83.41% | –
